Results published in patent US20230250181A1 (published 2023).

Columns and labels:
[1] = target: T1, recombinant biotinylated PD1/CD279 protein from Biolegend (789406) (UniProt Q15116 25-167, limits assumed, biotinylated); experiment: ELISA; antibody coated on plate, biotinylated PD-1 titrated, streptavidin-HRP
T1 construct: also called PD1/CD279 ligand
Description: The interaction of the unmodified and of conjugated anti-PD1 antibodies with PD-1 (CD279) were measured by ELISA assay. For these studies, Corning high-binding half-area plates (Fisher Scientific, Reinach, Switzerland) were coated overnight at 4° C. with 25 μl of unmodified or conjugated anti-PD1 antibodies at 2.5 μg/ml in PBS. Plates were then washed four times with 100 μl of PBS-0.02% Tween20. Plate surfaces were blocked with 25 μl of PBS-0.02% Tween20-1% BSA at 37° C. during 1 h. Plates were then washed four times with 100 μl of PBS-0.02% Tween20. […] Plates were then washed four times with 100 μl of PBS-0.02% Tween20. Twenty-five microliters of Streptavidin-Horseradish peroxidase (#RABHRP3, Merck, Buchs, Switzerland) diluted at 1:500 in PBS-0.02% Tween20-0.1% BSA were added to each well and incubated at Room Temperature during 30 min. Plates were then washed four times with 100 μl of PBS-0.02% Tween20. Fifty microliters of TMB substrate reagent (#CL07, Merck, Buchs, Switzerland) were added to each well and incubated at 37° C. during 5 min. After 5 min at 37° C., Horseradish peroxidase reaction was stopped by adding 50 μl/well of 0.5M H₂SO₄ stop solution. ELISA signal was then measured at 450 nm on an EnSpire plate reader from Perkin Elmer (Schwerzenbach, Switzerland).

[2] = target: T2, recombinant Human Fc gamma RI/CD64 Protein (R&D systems, 1257-FC-050, CF) (human, UniProt P12314 16-288); experiment: ELISA; antibody coated on plate, recombinant receptor titrated
T2 construct: Bought protein; also called FcγRI; FcgRI
Description: (§1) The interaction of the unmodified and of conjugated anti-PD1 antibodies with human Fc gamma receptors I (FcγRI/CD64), with human Fc gamma receptors Ha (FcγRIIa/CD32a), with inhibitory human Fc gamma receptors IIb (FcγRIIb/CD32b), and with human Fc gamma receptors III FcγR3a/CD16 were measured by ELISA. Briefly, Corning high-binding half-area plates (Fisher Scientific, Reinach, Switzerland) were coated overnight at 4° C. with 25 μl of unmodified and of conjugated anti-PD1 antibodies at 2.5 μg/ml in PBS. Plates were then washed four times with 100 μl of PBS-0.02% Tween20. Plates surfaces were blocked with 25 μl of PBS-0.02% Tween20-1% BSA at 37° C. during 1 h. Plates were then washed four times with 100 μl of PBS-0.02% Tween20. Then twenty-five microliters of either recombinant Human Fc gamma RI/CD64 Protein (R&D systems, 1257-FC-050, CF), recombinant Human Fc gamma RIIA/CD32a (H167) Protein (R&D systems, 9595-CD-050, CF), recombinant Human Fc gamma RIIB/CD32b Avi-tag Protein (R&D systems, AVI1875-050, CF), or recombinant Human Fc gamma RIIIA/CD16a Protein (R&D systems, 4325-FC-050; CF) were added in five-fold serial dilutions ranging from 1000 nM to 0.001 nM into PBS-0.02% Tween20-0.1% BSA and incubated at 37° C. during 2 h. […] ELISA signal was then measured at 450 nm on an EnSpire plate reader from Perkin Elmer (Schwerzenbach, Switzerland). […]

[3] = target: T3, recombinant Human Fc gamma RIIIA/CD16a Protein (R&D systems, 4325-FC-050; CF) (human, UniProt P08637 17-208, limits assumed); experiment: as above
T3 construct: Bought protein; also called FcγRIIIa; FcgRIIIa
Description: as §1

[4] = target: T4, recombinant biotinylated human FcRn (human, UniProt P55899 24-297, limits assumed, biotinylated); experiment: AlphaLISA competition at pH 6; test molecule competes with human IgG acceptor beads for biotinylated human FcRn
T4 construct: also called human neonatal Fc receptor
Description: The interaction of the unmodified and of conjugated anti-PD1 antibodies with the human neonatal Fc receptor (FcRn) at pH 6 was measured using the AlphaLISA® Human FcRn Binding Kit (AL3095C) from Perkin Elmer (Schwerzenbach, Switzerland).
After 90 min at 23° C. in the dark, AlphaLISA® signal was measured on an EnSpire plate reader (Excitation at 680 nm, Emission at 615 nm) from Perkin Elmer (Schwerzenbach, Switzerland).

T1 sequence (Q15116 25-167 limits assumed): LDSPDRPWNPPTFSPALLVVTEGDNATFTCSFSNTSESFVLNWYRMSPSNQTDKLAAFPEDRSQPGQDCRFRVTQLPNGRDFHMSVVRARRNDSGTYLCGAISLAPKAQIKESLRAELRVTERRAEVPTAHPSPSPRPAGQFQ
T4 sequence (P55899 24-297 limits assumed, form in doubt): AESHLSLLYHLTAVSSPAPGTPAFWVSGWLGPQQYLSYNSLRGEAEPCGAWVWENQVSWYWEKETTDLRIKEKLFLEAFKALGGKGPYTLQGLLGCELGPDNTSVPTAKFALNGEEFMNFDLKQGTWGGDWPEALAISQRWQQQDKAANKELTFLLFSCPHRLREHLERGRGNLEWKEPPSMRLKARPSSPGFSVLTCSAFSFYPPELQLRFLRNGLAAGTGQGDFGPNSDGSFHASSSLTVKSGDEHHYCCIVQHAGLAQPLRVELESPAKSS
T2 sequence (P12314 16-288 limits assumed): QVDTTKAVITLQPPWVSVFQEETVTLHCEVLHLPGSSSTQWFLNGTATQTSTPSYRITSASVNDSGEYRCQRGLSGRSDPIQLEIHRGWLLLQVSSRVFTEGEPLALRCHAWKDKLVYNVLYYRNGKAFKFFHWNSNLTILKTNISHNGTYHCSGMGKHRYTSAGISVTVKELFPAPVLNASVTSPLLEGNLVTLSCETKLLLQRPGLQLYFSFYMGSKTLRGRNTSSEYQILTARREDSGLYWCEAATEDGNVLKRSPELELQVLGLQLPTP
T3 sequence (P08637 17-208 limits assumed): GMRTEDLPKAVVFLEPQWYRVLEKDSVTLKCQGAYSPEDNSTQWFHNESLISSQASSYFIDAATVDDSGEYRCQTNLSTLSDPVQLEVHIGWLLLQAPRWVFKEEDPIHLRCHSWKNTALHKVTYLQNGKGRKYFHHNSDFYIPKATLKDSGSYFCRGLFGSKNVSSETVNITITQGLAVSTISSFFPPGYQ

B1: Composition K (antibody)
VH: QVQLVQSGAEVKKPGASVKVSCKASGYTFTSYYMYWVRQAPGQGLEWMGGVNPSNGGTNFNEKFKSRVTITADKSTSTAYMELSSLRSEDTAVYYCARRDYRYDMGFDYWGQGTTVTVSS
VL: EIVLTQSPATLSLSPGERATISCRASKGVSTSGYSYLHWYQQKPGQAPRLLIYLASYLESGVPARFSGSGSGTDFTLTISSLEPEDFATYYCQHSRELPLTFGTGTKVEIK
chain: APTSSSTKKTQLQLEHLLLDLQXILNGINNYKNPKLTRXLXYKFYXPKKATELKHLQCLEEELKPLEEVLXLAQSKNFHLRPRDLISNINVIVLELKGSETTFXCEYADETATIVEFLNRWITFSQSIISTLT
modifications: not fully specified; Composition AB: Nle at 23, 39, 46; Hse at 41, 71, 104; ~0.5 kDa PEG on Y45; 0.5 kDa PEG capped with azide on F42Y, reacted with DBCO on K288 (EU numbering) of the antibody's Fc region
notes: Immunocytokine; linker at K288 of the Fc region
Kd [1]: 41 µM

B2: LZM-009 (antibody, V domains shown)
VH: B1 VH
VL: B1 VL
Kd [1]: 35 µM

B3: Composition J (antibody)
VH: B1 VH
VL: B1 VL
chain: B1 chain
modifications: not fully specified; Composition AB: Nle at 23, 39, 46; Hse at 41, 71, 104; ~0.5 kDa PEG on Y45; 0.5 kDa PEG capped with azide on F42Y, reacted with DBCO on K288 (EU numbering) of the antibody's Fc region
notes: Immunocytokine; linker at K288 of the Fc region, DAR 1; also called LZM-009 conjugated to Composition AB, DAR 1, K288
Kd [1]: 27 µM

B4: Composition H (antibody)
VH: B1 VH
VL: B1 VL
chain: B1 chain
modifications: not fully specified; Composition AB: Nle at 23, 39, 46; Hse at 41, 71, 104; ~0.5 kDa PEG on Y45; 0.5 kDa PEG capped with azide on F42Y, reacted with DBCO on K248 (EU numbering) of the antibody's Fc region
notes: Immunocytokine; linker at K248 of the Fc region, DAR 1; also called LZM-009 conjugated to Composition AB, DAR 1, K248
Kd [1]: 37 µM

B5: Pembrolizumab (antibody, human IgG4 S228P, kappa)
heavy: not shown
light: EIVLTQSPATLSLSPGERATLSCRASKGVSTSGYSYLHWYQQKPGQAPRLLIYLASYLESGVPARFSGSGSGTDFTLTISSLEPEDFAVYYCQHSRDLPLTFGGGTKVEIKRTVAAPSVFIFPPSDEQLKSGTASVVCLLNNFYPREAKVQWKVDNALQSGNSQESVTEQDSKDSTYSLSSTLTLSKADYEKHKVYACEVTHQGLSSPVTKSFNRGEC
notes: also called Lambrolizumab
Kd [2]: 0.000488 µM
Kd [3]: 0.289 µM
Kd [4]: 0.00731 µM
